Measurements from patent US20220396616A1.

Assays:
human CLDN18.1 (human) [1] = biological target: human CLDN18.1 (human) (UniProt P56856); assay: flow cytometry on CLDN18.1-HEK293 cells, 100 µg/mL antibody, replicate 3
human CLDN18.1 (human) [2] = biological target: human CLDN18.1 (human) (UniProt P56856); assay: flow cytometry on CLDN18.1-HEK293 cells, 100 µg/mL antibody, replicate 1
human CLDN18.1 (human) [3] = biological target: human CLDN18.1 (human) (UniProt P56856); assay: flow cytometry on CLDN18.1-HEK293 cells, 100 µg/mL antibody, replicate 2

Chain of human CLDN18.1 (human) (P56856 whole entry): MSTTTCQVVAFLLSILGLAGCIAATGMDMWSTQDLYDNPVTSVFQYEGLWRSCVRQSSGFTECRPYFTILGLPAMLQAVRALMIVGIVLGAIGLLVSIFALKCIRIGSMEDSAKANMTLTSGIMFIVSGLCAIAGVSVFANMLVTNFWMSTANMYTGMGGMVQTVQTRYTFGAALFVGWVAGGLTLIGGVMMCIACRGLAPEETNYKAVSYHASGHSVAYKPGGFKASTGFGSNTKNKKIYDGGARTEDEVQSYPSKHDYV

hIgG1 isotype antibody
positive rate of cell binding (human CLDN18.1 (human) [1]): 0.115% | positive rate of cell binding (human CLDN18.1 (human) [2]): 0.063% | positive rate of cell binding (human CLDN18.1 (human) [3]): 0.233%
